Experimental data as given in the Immune Epitope Database (IEDB).

Assays:
Experiment in all cases: IEDB peptide-MHC binding, purified MHC/competitive/radioactivity; filed as Kd, often an IC50 or EC50 that approximates it; ≥ and ≤ were set here for values at or beyond the usual limits of such assays
HLA-A*02:06 = target: HLA-A*02:06
HLA-A*02:02 = target: HLA-A*02:02
HLA-A*02:03 = target: HLA-A*02:03
HLA-A*11:01 = target: HLA-A*11:01
HLA-A*03:01 = target: HLA-A*03:01
HLA-A*33:01 = target: HLA-A*33:01
HLA-A*68:01 = target: HLA-A*68:01
HLA-A*31:01 = target: HLA-A*31:01
[1] = source organism: Vaccinia virus WR
[2] = source organism: Lassa virus Josiah
[3] = source organism: Mammarenavirus machupoense
[4] = source organism: Vaccinia virus Copenhagen
[5] = source organism: SARS coronavirus Tor2
[6] = source organism: Lymphocytic choriomeningitis virus (strain Pasteur)
[7] = source organism: Dengue virus 4 Philippines/H241/1956
[8] = source organism: Mammarenavirus guanaritoense

## RQDYRRSINV
HLA-A*02:06; [1]
  Kd: 2220 nM
HLA-A*02:02; [1]
  Kd: 1010 nM
HLA-A*02:03; [1]
  Kd: 375 nM

## RSAFNDDGIY
HLA-A*11:01; [1]
  Kd: ≥ 66400 nM
HLA-A*03:01; [1]
  Kd: ≥ 70100 nM
HLA-A*33:01; [1]
  Kd: ≥ 70 µM
HLA-A*68:01; [1]
  Kd: ≥ 31800 nM
HLA-A*31:01; [1]
  Kd: ≥ 70000 nM

## SAVIDALPR
HLA-A*11:01; [2]
  Kd: 222 nM
HLA-A*03:01; [2]
  Kd: 11000 nM
HLA-A*33:01; [2]
  Kd: 15.3 µM
HLA-A*68:01; [2]
  Kd: 53.3 nM
HLA-A*31:01; [2]
  Kd: 2120 nM

## SFFQEIPVFL
HLA-A*11:01; [3]
  Kd: ≥ 59700 nM
HLA-A*03:01; [3]
  Kd: ≥ 70000 nM
HLA-A*33:01; [3]
  Kd: 2.41 µM
HLA-A*68:01; [3]
  Kd: ≥ 49200 nM
HLA-A*31:01; [3]
  Kd: 613 nM

## SIGFEARIV
HLA-A*02:06; [1]
  Kd: 1310 nM
HLA-A*02:02; [1]
  Kd: 10100 nM
HLA-A*02:03; [1]
  Kd: 575 nM

## SIISLFYTFA
HLA-A*02:06; [1]
  Kd: 93.6 nM
HLA-A*02:02; [1]
  Kd: 111 nM
HLA-A*02:03; [1]
  Kd: 28.1 nM

## SLAIKNYYR
HLA-A*11:01; [4]
  Kd: 6060 nM
HLA-A*03:01; [4]
  Kd: ≥ 43000 nM
HLA-A*33:01; [4]
  Kd: ≥ 77.7 µM
HLA-A*68:01; [4]
  Kd: 6410 nM
HLA-A*31:01; [4]
  Kd: 3100 nM

## SLQVCVQTVR
HLA-A*11:01; [5]
  Kd: 7030 nM
HLA-A*03:01; [5]
  Kd: 13300 nM
HLA-A*33:01; [5]
  Kd: 5.11 µM
HLA-A*68:01; [5]
  Kd: 5790 nM
HLA-A*31:01; [5]
  Kd: 470 nM

## SMKGENVFI
HLA-A*02:06; [1]
  Kd: 13700 nM
HLA-A*02:02; [1]
  Kd: 5.48 nM
HLA-A*02:03; [1]
  Kd: 18.9 nM

## SMTIREFPRK
HLA-A*11:01; [1]
  Kd: 3.18 nM
HLA-A*03:01; [1]
  Kd: 10.1 nM
HLA-A*33:01; [1]
  Kd: 6.88 µM
HLA-A*68:01; [1]
  Kd: 1250 nM
HLA-A*31:01; [1]
  Kd: 39.6 nM

## SSRVDRYSK
HLA-A*11:01; [1]
  Kd: 16.9 nM
HLA-A*03:01; [1]
  Kd: 65.9 nM
HLA-A*33:01; [1]
  Kd: 1.21 µM
HLA-A*68:01; [1]
  Kd: 611 nM
HLA-A*31:01; [1]
  Kd: 266 nM

## STAEQLSKY
HLA-A*11:01; [1]
  Kd: 133 nM
HLA-A*03:01; [1]
  Kd: 2430 nM
HLA-A*33:01; [1]
  Kd: ≥ 77.7 µM
HLA-A*68:01; [1]
  Kd: 54.9 nM
HLA-A*31:01; [1]
  Kd: ≥ 77900 nM

## STSPTRTWKV
HLA-A*02:06; [1]
  Kd: 504 nM
HLA-A*02:02; [1]
  Kd: 397 nM
HLA-A*02:03; [1]
  Kd: 717 nM

## TIDNPTKYIR
HLA-A*11:01; [1]
  Kd: 2600 nM
HLA-A*03:01; [1]
  Kd: 15700 nM
HLA-A*33:01; [1]
  Kd: 4.26 µM
HLA-A*68:01; [1]
  Kd: 158 nM
HLA-A*31:01; [1]
  Kd: 115 nM

## TINVNSLALK
HLA-A*11:01; [1]
  Kd: 18.7 nM
HLA-A*03:01; [1]
  Kd: 17.3 nM
HLA-A*33:01; [1]
  Kd: 4 µM
HLA-A*68:01; [1]
  Kd: 6.2 nM
HLA-A*31:01; [1]
  Kd: 1120 nM

## TLLIKTLSPA
HLA-A*02:06; [1]
  Kd: 0.728 nM
HLA-A*02:02; [1]
  Kd: 1.05 nM
HLA-A*02:03; [1]
  Kd: 1.17 nM

## TLLNETAKVI
HLA-A*02:06; [1]
  Kd: 8550 nM
HLA-A*02:02; [1]
  Kd: 2860 nM
HLA-A*02:03; [1]
  Kd: 2130 nM

## TLNEDLLEI
HLA-A*02:06; [5]
  Kd: 56.3 nM
HLA-A*02:02; [5]
  Kd: 1.45 nM
HLA-A*02:03; [5]
  Kd: 2.24 nM

## TLYAVATTVI
HLA-A*02:03; source organism: Dengue virus 1 Brazil/97-11/1997
  Kd: 195 nM

## TMPNESRVK
HLA-A*11:01; [1]
  Kd: 930 nM
HLA-A*03:01; [1]
  Kd: 17500 nM
HLA-A*33:01; [1]
  Kd: ≥ 77.7 µM
HLA-A*68:01; [1]
  Kd: 2040 nM
HLA-A*31:01; [1]
  Kd: ≥ 61600 nM

## TQLYLGGMSY
HLA-A*11:01; [5]
  Kd: 766 nM
HLA-A*03:01; [5]
  Kd: 36.5 nM
HLA-A*33:01; [5]
  Kd: ≥ 40 µM
HLA-A*68:01; [5]
  Kd: 1350 nM
HLA-A*31:01; [5]
  Kd: 5840 nM

## TVENNIDFLK
HLA-A*11:01; [1]
  Kd: 69.9 nM
HLA-A*03:01; [1]
  Kd: 2650 nM
HLA-A*33:01; [1]
  Kd: 17.9 µM
HLA-A*68:01; [1]
  Kd: 19.7 nM
HLA-A*31:01; [1]
  Kd: 8650 nM

## TYLGPLNCK
HLA-A*11:01; [6]
  Kd: 47.8 nM
HLA-A*03:01; [6]
  Kd: 481 nM
HLA-A*33:01; [6]
  Kd: 0.834 µM
HLA-A*68:01; [6]
  Kd: 699 nM
HLA-A*31:01; [6]
  Kd: 5220 nM

## VAEHRFENMK
HLA-A*11:01; [1]
  Kd: 788 nM
HLA-A*03:01; [1]
  Kd: 4870 nM
HLA-A*33:01; [1]
  Kd: ≥ 70 µM
HLA-A*68:01; [1]
  Kd: 5730 nM
HLA-A*31:01; [1]
  Kd: ≥ 34700 nM

## VIEYAKSISK
HLA-A*11:01; [1]
  Kd: 165 nM
HLA-A*03:01; [1]
  Kd: 129 nM
HLA-A*33:01; [1]
  Kd: 17.5 µM
HLA-A*68:01; [1]
  Kd: 2720 nM
HLA-A*31:01; [1]
  Kd: 10800 nM

## VIPDELIDVL
HLA-A*02:06; [1]
  Kd: 298 nM
HLA-A*02:02; [1]
  Kd: 2490 nM
HLA-A*02:03; [1]
  Kd: 4590 nM

## VIRNEVNDT
HLA-A*02:06; [1]
  Kd: ≥ 77100 nM
HLA-A*02:02; [1]
  Kd: 19900 nM
HLA-A*02:03; [1]
  Kd: 820 nM

## VLKAMHDKK
HLA-A*11:01; [1]
  Kd: 364 nM
HLA-A*03:01; [1]
  Kd: 263 nM
HLA-A*33:01; [1]
  Kd: 0.977 µM
HLA-A*68:01; [1]
  Kd: 3420 nM
HLA-A*31:01; [1]
  Kd: 126 nM

## VLTILYYGA
HLA-A*02:06; [1]
  Kd: 6240 nM
HLA-A*02:02; [1]
  Kd: 1.32 nM
HLA-A*02:03; [1]
  Kd: 17.5 nM

## VQIENLEYTV
HLA-A*02:06; [7]
  Kd: 4.4 nM

## VSTGESSILR
HLA-A*11:01; [1]
  Kd: 204 nM
HLA-A*03:01; [1]
  Kd: ≥ 24900 nM
HLA-A*33:01; [1]
  Kd: 3.23 µM
HLA-A*68:01; [1]
  Kd: 119 nM
HLA-A*31:01; [1]
  Kd: 1390 nM

## VTPEYIKDLK
HLA-A*11:01; [1]
  Kd: 522 nM
HLA-A*03:01; [1]
  Kd: 14300 nM
HLA-A*33:01; [1]
  Kd: ≥ 70 µM
HLA-A*68:01; [1]
  Kd: 374 nM
HLA-A*31:01; [1]
  Kd: 15100 nM

## VTSSGVIYK
HLA-A*11:01; source organism: Variola virus
  Kd: ≥ 69700 nM
HLA-A*03:01; source organism: Variola virus
  Kd: ≥ 70000 nM
HLA-A*33:01; source organism: Variola virus
  Kd: ≥ 70 µM
HLA-A*68:01; source organism: Variola virus
  Kd: ≥ 70100 nM
HLA-A*31:01; source organism: Variola virus
  Kd: ≥ 70000 nM

## VVKDDPDHY
HLA-A*11:01; [1]
  Kd: 1800 nM
HLA-A*03:01; [1]
  Kd: ≥ 78000 nM
HLA-A*33:01; [1]
  Kd: ≥ 77.7 µM
HLA-A*68:01; [1]
  Kd: 8050 nM
HLA-A*31:01; [1]
  Kd: ≥ 77900 nM

## VVYRGTTTYK
HLA-A*11:01; [5]
  Kd: 15.8 nM
HLA-A*03:01; [5]
  Kd: 5.74 nM
HLA-A*33:01; [5]
  Kd: 6.92 µM
HLA-A*68:01; [5]
  Kd: 11.6 nM
HLA-A*31:01; [5]
  Kd: 260 nM

## WLYYNQDVQR
HLA-A*11:01; [1]
  Kd: 7910 nM
HLA-A*03:01; [1]
  Kd: 1840 nM
HLA-A*33:01; [1]
  Kd: 0.161 µM
HLA-A*68:01; [1]
  Kd: 8.21 nM
HLA-A*31:01; [1]
  Kd: 222 nM

## WQIEKASLI
HLA-A*02:06; [7]
  Kd: 43.5 nM

## YCLDFLFDV
HLA-A*02:06; [8]
  Kd: ≥ 77000 nM
HLA-A*02:02; [8]
  Kd: 17300 nM
HLA-A*02:03; [8]
  Kd: ≥ 78100 nM

## YVLGIFLRKL
HLA-A*02:06; [7]
  Kd: 32.6 nM
